Biological target: HTLV-1 CA C-terminal domain, HTLV-1 CACTD (A128-L214) (Human T-cell Leukaemia Virus type 1, subtype C, isolate Aus-GM)
Test: SEC; HTLV-1 CACTD on HiLoad 26/600 Superdex 75 pg, 20 mM HEPES (pH 7.0), 40 mM NaCl; purified as a dimer (Supplementary Fig. 3d)

Q: “HTLV-1 CA C-terminal domain, HTLV-1 CACTD (A128-L214) (domain or fragment)” was tested. Which stoichiometry N did it give?
A: Its stoichiometry N is 2.
